Key:
[1] = Shuffled variant libraries: 14CO2 capturing assay in 384-well format; conditions: decarboxylation activity (carbon dioxide released) compared with unmutated backbone protein SEQ ID NO 133 (DDEC0201)
[2] = Saturation mutagenesis of SEQ ID NO:109: dicamba decarboxylation activity of point mutants (carbon dioxide released); conditions: decarboxylation activity (carbon dioxide released) of point mutant compared with unmutated backbone protein; backbone SEQ ID NO: 109

Row | Molecule | Fold Activity [1] | Fold Activity [2]
1 | 158 (protein, Dicamba decarboxylase variant) MAQGKVALEEHFAIPETLNDSAGFVPGDYWKELQHRLLDIQDTRLKLMDAHGIETMILSLAAPAVQAIPDRRKAIEIARRANDFLAEECAKRPDRFLAFAALPLQDPDAATEELQRCVNDLGFVGALVNGFSQEGDGQTPLYYDLPQYRPFWGEVEKLDVPFYLHPRNPLPQDSRIYDGHPWLLGPTWAFAQETAVHALRLMASGLFDEHPRLNIILGHMGEGLPYMMYRIDHRIAWVKLPPRYPAKRRFMDYFNENFHITTSGNFRTQTLIDAILEIGADRILFSTDWPFENIDHATAWFNATSIAEADRVKIGRTNARRLFKLDGA | 1.0 | 1.6
2 | 202 (protein, Dicamba decarboxylase variant) MAQGKVALEEHFAIPETLQDSAGFVPGDYWKELQHRLLDIQDTRLKLMDAHGIETMILSLAAPGVQAIPDRRKAIEIARRANDFLAEECAKRPDRFLAFAALPLQDPDAATEELQRCVNDLGFVGALVNGFSQEGDGQTPLYYDLPQYRPFWGEVEKLDVPFYLHPRNPLPQDSRIYDGHPWLLGPTWAFAQETAVHALRLMASGLFDEHPRLNIILGHMGEGLPYMMYRIDHRIAWVHEPPRYPAKRRFMDYFNENFHITTSGNFRTQTLIDAILEIGADRILFSTDWPFENIDHAADWFNATSIAEADRLKIGRTNARRLFKLDLD | 2.2 | 1.4
3 | 159 (protein, Dicamba decarboxylase variant) MAQGKVALEEHFAIPETLQDSAGFVPGDYWKELQHRLLDIQDTRLKLMDAHGIETMILSLAAPAVQAIPDRRKAIEIARRANDFLAEECAKRPDRFLAFAALPLQDPDAATEELQRCVNDLGFVGALVNGFSVEGDGQTPLYYDLPQYRPFWGEVEKLDVPFYLHPRNPLPQDSRIYDGHPWLLGPTWAFAQETAVHALRLMASGLFDEHPRLNIILGHLGEGLPYMMYRIDHRIAWVKLPPRYPAKRRFMDYFNENFHITTSGNFRTQTLIDAILEIGADRILFSTDWPFENIDHAADWFNATSIAEADRVKIGRTNARRLFKLDGA | 1.0 | 1.5
4 | 203 (protein, Dicamba decarboxylase variant) MAQGKVALEEHFAIPETLQDSAGFVPGDYWKELQHRLLDIQDTRLKLMDAHGIETMILSLAAPAVQAIPDRRKAIEIARRANDFLAEECAKRPDRFLAFAALPLQDPDAATEELQRCVNDLGFVGALVNGFSVEGDGQTPLYYDLPQYRPFWGEVEKLDVPFYLHPRNPLPQDSRIYDGHPWLLGPTWAFAQETAVHALRLMASGLFDEHPRLNIILGHMGEGLPYMMYRIDHRIAWVHEPPRYPAKRRFMDYFLENFHITTSGNFRTQTLIDAILEIGADRILFSTDWPFENIDHAADWFNATSIAEADRLKIGRTNARRLFKLDGA | 2.3 | 1.1
5 | 162 (protein, Dicamba decarboxylase variant) MAQGKVALEEHFAIPETLQDSAGFVPGDYWKELQHRLLDIQDTRLKLMDAHGIETMILSLAAPAVQAIPDRRKAIEIARRANDFLAEECAKRPDRFLAFAALPMQDVDAATEELQRCVNTLGFVGALVNGFSVEGDGQTPLYYDLPQYRPFWGEVEKLDVPFYLHPRNPLPQDSRIYDGHPWLLGPTWAFAQETAVHALRLMASGLFDEHPRLNIILGHLGEGLPYMMYRIDHRIAWVKLPPRYPAKRRFMDYFNENFHITTSGNFRTQTLIDAILEIGADRILFSTDWPFENIDHAADWFNATSIAEADRVKIGRTNARRLFKLDGA | 1.0 | 1.4
6 | 205 (protein, Dicamba decarboxylase variant) MAQGKVALEEHFAIPETLNDSAGFVPGDYWKELQHRLLDIQDTRLKLMDAHGIETMILSLAAPAVQAIPDRRKAIEIARRANDFLAEECAKRPDRFLAFAALPLQDPDAATEELQRCVNDLGFVGALVNGFSQEGDGQTPLYYDLPQYRPFWGEVEKLDVPFYLHPRNPLPQDSRIYDGHPWLLGPTWAFAQETAVHALRLMASGLFDEHPRLNIILGHMGEGLPYMMYRIDHRIAWVHEPPRYPAKRRFMDYFNENFHITTSGNFRTQTLIDAILEIGADRILFSTDWPFENIDHAAAWFNATSIAEADRVKIGRTNARRLFKLDGD | 1.0 | 1.3
7 | 161 (protein, Dicamba decarboxylase variant) MAQGKVALEEHFAIPETLQDSAGFVPGDYWKELQHRLLDIQDTRLKLMDAHGIETMILSLAAPAVQAIPDRRKAIEIARRANDFLAEECAKRPDRFLAFAALPLQDPDAATEELQRCVNDLGFVGALVNGFSVEGDGQTPLYYDLPQYRPFWGEVEKLDVPFYLHPRNPLPQDSRIYDGHPWLLGPTWAFAQETAVHALRLMASGLFDEHPRLNIILGHMGEGLPYMMYRIDHRIAWVKLPPRYPAKRRFMDYFNENFHITTSGNFRTQTLIDAILEIGADRILFSTDWPFENIDHATAWFNATSIAEADRVKIGRTNARRLFKLDGD | 1.1 | 1.5
8 | 204 (protein, Dicamba decarboxylase variant) MAQGKVALEEHFAIPETLQDSAGFVPGDYWKELQHRLLDIQDTRLKLMDAHGIETMILSLAAPAVQAIPDRVKAIEIARRANDMLAEECAKRPDRFLAFAALPLQDPDAATEELQRTVNDLGFVGALVNGFSQEGDGQTPLYYDLPQYRPFWGEVEKLDVPFYLHPRNPLPQDSRIYDGHPWLLGPTWAFAQETAVHALRLMASGLFDEHPRLNIILGHMGEGLPYMMYRIDHRIAWVHEPPRYPAKRRFMDYFNENFHITTSGNFRTQTLIDAILEIGADRILFSTDWPFENIDHAADWFNATSIAEADRLKIGRTNARRLFKLDGD | 1.0 | 2
9 | 160 (protein, Dicamba decarboxylase variant) MAQGKVALEEHFAIPETLQDSAGFVPGDYWKELQHRLLDIQDTRLKLMDAHGIETMILSLAAPAVQAIPDRRKAIEIARRANDFLAEECAKRPDRFLAFAALPLQDPDAATEELQRCVNTLGFVGALVNGFSQEGDGQTPLYYDLPQYRPFWGEVEKLDVPFYLHPRNPLPQDSRIYDGHPWLLGPTWAFAQETAVHALRLMASGLFDEHPRLNIILGHMGEGLPYMMYRIDHRIAWVKLPPRYPAKRRFMDYFNENFHITTSGNFRTQTLIDAILEIGADRILFSTDWPFENIDHAADWFNATSIAEADRVKIGRTNARRLFKLDGD | 1.1 | 1.7
10 | 207 (protein, Dicamba decarboxylase variant) MAQGKVALEEHFAIPETLQDSAGFVPGDYWKELQHRLLDIQDTRLKLMDAHGIETMILSLAAPAVQAIPDRRKAIEIARRANDFLAEECAKRPDRFLAFAALPLQDPDAATEELQRCVNDLGFVGALVNGFSVEGDGQTPLYYDLPQYRPFWGEVEKLDVPFYLHPRNPLPQDSRIYDGHPWLLGPTWAFAQETAVHALRLMASGLFDEHPRLNIILGHMGEGLPYMMYRIDHRIAWVHEPPRYPAKRRFMDYFNENFHITTSGNFRTQTLIDAILEIGADRILFSTDWPFENIDHAAAWFNATSIAEADRVKIGRTNARRLFKLDLD | 1.4 | 1.3
11 | 201 (protein, Dicamba decarboxylase variant) MAQGKVALEEHFAIPETLQDSAGFVPGDYWKELQHRLLDIQDTRLKLMDAHGIETMILSLAAPAVQAIPDRRKAIEIARRANDFLAEECAKRPDRFLAFAALPLQDPDAATEELQRCVNDLGFVGALVNGFSVEGDGQTPLYYDLPQYRPFWGEVEKLDVPFYLHPRNPLPQDSRIYAGHPWLLGPTWAFAQETAVHALRLMASGLFDEHPRLNIILGHLGEGLPYMMYRIDHRIAWVKLPPRYPAKRRFMDYFNENFHITTSGNFRTQTLIDAILEIGADRILFSTDWPFENIDHAADWFNATSIAEADRVKIGRTNARRLFKLDGD | 1.5 | 1.2
12 | 206 (protein, Dicamba decarboxylase variant) MAQGKVALEEHFAIPETLQDSAGFVPGDYWKELQHRLLDIQDTRLKLMDAHGIETMILSLAAPAVQAIPDRRKAIEIARRANDFLAEECAKRPDRFLAFAALPMQDVDAASEELQRCVNDLGFVGALVNGFSQEGDGQTPLYYDLPQYRPFWGEVEKLDVPFYLHPRNPLPQDSRIYDGHPWLLGPTWAFAQETAVHALRLMASGLFDEHPRLNIILGHLGEGLPYMMYRIDHRIAWVHEPPRYPAKRRFMDYFNENFHITTSGNFRTQTLIDAILEIGADRILFSTDWPFENIDHAAAWFNATSIAEADRLKIGRTNARRLFKLDLD | 1.3 | 1.7
13 | 208 (protein, Dicamba decarboxylase variant) MAQGKVALEEHFAIPETLQDSAGFVPSDYLKELQHRLLDIQDTRLKLMDAHGIETMILSLAAPAVQAIPDRRKAIEIARRANDFLAEECAKRPDRFLAFAALPLQDPDAATEELQRCVNDLGFVGALVNGFSVEGDGQTPLYYDLPQYRPFWGEVEKLDVPFYLHPRNPLPQDSRIYDGHPWLLGPTWAFAQETAVHALRLMASGLFDEHPRLNIILGHLGEGLPYMMYRIDHRIAWVHEPPRYPAKRRFMDYFNENFHITTSGNFRTQTLIDAILEIGADRILFSTDWPFENIDHAADWFNATSIAEADRLKIGRTNARRLFKLDLD | 2.2 | 1.5

— patent US20160053277A1, “Compositions Having Dicamba Decarboxylase Activity and Methods of Use” (PIONEER HI-BRED INTERNATIONAL, INC., priority 2013, published 2016)
